Data as given in paper PMC12212138, “Crystal structure and mutagenesis of a nucleic acid–binding BRCT domain in human PARP4”.

Key:
Details in all cases: protein: recombinant; tags: N-terminal His-SUMO removed by TEV; label: 5'-6-FAM; predicted intramolecular fold
PARP4 BRCT WT = molecular target: T1, PARP4 BRCT WT (human, UniProt Q9UKK3 1-100); assay: FP; 3 nM probe; FP: 50 mM Tris pH 7.5, 50 mM NaCl, 1 mM MgCl2, 0.05% NP40, 2 mM DTT, 5% glycerol, 25 ug/ml BSA, room temp 30 min; EMSA: 50 mM Tris pH 7.5, 50 mM NaCl, 4% Ficoll PM400, 0.05% NP40, 2 mM DTT, 0-18 uM protein, room temp 30 min, gel at 4 C
T1 sequence: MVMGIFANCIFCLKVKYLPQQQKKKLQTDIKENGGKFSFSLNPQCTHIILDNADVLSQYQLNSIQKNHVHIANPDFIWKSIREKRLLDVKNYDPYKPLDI

PARP4 BRCT K23/24Q = molecular target: T2, PARP4 BRCT K23/24Q (human, UniProt Q9UKK3 1-100, K23Q;K24Q); assay: as above
T2 sequence: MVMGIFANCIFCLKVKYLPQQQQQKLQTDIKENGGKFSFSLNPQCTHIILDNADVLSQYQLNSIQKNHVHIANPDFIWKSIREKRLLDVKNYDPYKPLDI

PARP4 BRCT F39A [1] = molecular target: T3, PARP4 BRCT F39A (human, UniProt Q9UKK3 1-100, F39A); assay: as above
T3 sequence: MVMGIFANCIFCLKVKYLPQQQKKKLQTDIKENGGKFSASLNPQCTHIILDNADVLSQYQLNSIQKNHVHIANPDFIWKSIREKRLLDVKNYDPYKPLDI

[2] = molecular target: T4, PARP4 BRCT-WGR-CAT K23/24Q (human, UniProt Q9UKK3 1-573, K23Q;K24Q); assay: as above
T4 sequence: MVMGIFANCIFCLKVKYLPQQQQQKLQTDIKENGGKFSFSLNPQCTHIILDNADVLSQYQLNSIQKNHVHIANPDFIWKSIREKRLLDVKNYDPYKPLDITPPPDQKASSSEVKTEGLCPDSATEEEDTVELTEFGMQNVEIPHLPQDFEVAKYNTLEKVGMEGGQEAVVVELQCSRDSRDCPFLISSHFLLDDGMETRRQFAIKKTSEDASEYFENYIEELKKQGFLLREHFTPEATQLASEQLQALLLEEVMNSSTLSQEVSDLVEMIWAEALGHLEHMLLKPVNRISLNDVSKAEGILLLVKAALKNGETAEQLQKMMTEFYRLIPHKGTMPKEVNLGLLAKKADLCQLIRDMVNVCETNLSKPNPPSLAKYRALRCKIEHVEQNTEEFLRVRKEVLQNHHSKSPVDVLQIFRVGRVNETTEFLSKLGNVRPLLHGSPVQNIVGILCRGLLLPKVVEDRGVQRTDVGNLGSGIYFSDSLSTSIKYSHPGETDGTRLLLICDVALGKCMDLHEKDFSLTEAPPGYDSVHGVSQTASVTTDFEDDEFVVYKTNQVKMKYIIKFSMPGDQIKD

PARP4 BRCT-WGR-CAT WT = molecular target: T5, PARP4 BRCT-WGR-CAT WT (human, UniProt Q9UKK3 1-573); assay: EMSA; 20 nM probe; FP: 50 mM Tris pH 7.5, 50 mM NaCl, 1 mM MgCl2, 0.05% NP40, 2 mM DTT, 5% glycerol, 25 ug/ml BSA, room temp 30 min; EMSA: 50 mM Tris pH 7.5, 50 mM NaCl, 4% Ficoll PM400, 0.05% NP40, 2 mM DTT, 0-18 uM protein, room temp 30 min, gel at 4 C
T5 sequence: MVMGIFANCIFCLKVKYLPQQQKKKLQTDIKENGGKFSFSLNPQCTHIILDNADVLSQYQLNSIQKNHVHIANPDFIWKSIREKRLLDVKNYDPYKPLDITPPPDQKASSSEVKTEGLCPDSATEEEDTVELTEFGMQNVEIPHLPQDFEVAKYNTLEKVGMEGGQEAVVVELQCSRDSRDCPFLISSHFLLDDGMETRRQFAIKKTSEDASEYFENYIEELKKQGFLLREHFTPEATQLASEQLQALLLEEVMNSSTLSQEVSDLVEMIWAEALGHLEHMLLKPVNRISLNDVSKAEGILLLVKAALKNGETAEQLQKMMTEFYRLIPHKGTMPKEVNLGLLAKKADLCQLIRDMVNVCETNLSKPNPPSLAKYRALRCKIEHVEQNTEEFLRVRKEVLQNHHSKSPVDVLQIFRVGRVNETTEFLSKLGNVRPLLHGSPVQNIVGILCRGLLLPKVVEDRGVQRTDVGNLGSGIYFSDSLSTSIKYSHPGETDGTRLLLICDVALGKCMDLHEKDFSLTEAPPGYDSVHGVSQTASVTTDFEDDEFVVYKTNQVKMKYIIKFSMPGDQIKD

PARP4 BRCT F39A [3] = molecular target: T3, PARP4 BRCT F39A; assay: as above

B1: vtRNA1-3 (structured_RNA)
RNA: GGCUGGCUUUAGCUCAGCGGUUACUUCGCGUGUCAUCAAACCACCUCUCUGGGUUGUUCGAGACCCGCGGGCGCUCUCCAGCCCUCUU
PARP4 BRCT WT
  Kd: 19 ± 4 µM
PARP4 BRCT K23/24Q
  binding result: no binding
PARP4 BRCT F39A [1]
  Kd: 33 ± 2 µM
[2]
  Kd: 71 ± 26 µM
PARP4 BRCT-WGR-CAT WT
  Kd: 3 ± 1 µM
PARP4 BRCT F39A [3]
  Kd: 0.6 ± 0.1 µM
